Substitutions are numbered along the chain they refer to.
What was measured:
Conditions in all cases: both partners purified
[1] = molecular target: T1, HER2-ECD biotinylated at single site (Homo sapiens, UniProt P04626, biotinylated at single site); experiment: SPR; Biacore 8K; biotinylated HER2-ECD on a streptavidin chip; sdAbs injected in multi-cycle kinetics, 2-fold dilution series from 5 nM; 100 μL/min, 25°C, HBS-EP+ pH 7.4; 1:1 model
T1 construct: human HER2 extracellular domain; also called ECD of HER2; source: bought: Sino Biological

mouse HER2-ECD-Fc = molecular target: T2, mouse HER2-ECD-Fc (Mus musculus, UniProt P70424); experiment: ELISA; microplates coated with human or mouse HER2-ECD-Fc, blocked with 1% BSA at room temperature; NM-02 serially diluted from 160 nM; detected with mouse anti-HA and anti-mouse IgG-alkaline phosphatase
T2 construct: mouse HER2 (ErbB2), extracellular domain; also called murine HER2-ECD; recombinant murine HER2-ECD; source: bought: R&D systems
T2 sequence (P70424 23-653): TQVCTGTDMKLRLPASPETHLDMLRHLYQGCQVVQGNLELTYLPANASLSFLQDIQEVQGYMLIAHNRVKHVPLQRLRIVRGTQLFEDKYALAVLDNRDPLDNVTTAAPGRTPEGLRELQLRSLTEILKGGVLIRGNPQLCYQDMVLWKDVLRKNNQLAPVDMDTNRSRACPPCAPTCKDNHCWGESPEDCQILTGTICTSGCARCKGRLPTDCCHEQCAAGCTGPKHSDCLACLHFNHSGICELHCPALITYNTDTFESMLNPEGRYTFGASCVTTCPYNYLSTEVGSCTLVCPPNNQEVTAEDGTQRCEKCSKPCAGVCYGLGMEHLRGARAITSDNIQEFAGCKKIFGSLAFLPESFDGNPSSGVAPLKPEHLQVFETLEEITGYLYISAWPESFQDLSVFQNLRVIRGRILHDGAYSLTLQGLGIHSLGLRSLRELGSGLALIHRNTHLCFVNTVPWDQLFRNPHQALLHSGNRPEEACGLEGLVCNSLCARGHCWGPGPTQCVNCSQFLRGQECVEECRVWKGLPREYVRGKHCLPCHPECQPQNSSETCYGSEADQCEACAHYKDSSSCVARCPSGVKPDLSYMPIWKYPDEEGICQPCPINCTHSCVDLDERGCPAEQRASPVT

human HER2-ECD-Fc [2] = molecular target: T3, human HER2-ECD-Fc (Homo sapiens, UniProt P04626); experiment: as above
T3 construct: human epidermal growth factor receptor-2 (HER2), extracellular domain; The supplier is named only for the cross-reactivity ELISA; also called recombinant human HER2-Fc; recombinant human HER2-ECD; source: bought: R&D systems

human HER2-ECD-Fc [3] = molecular target: T3, human HER2-ECD-Fc; experiment: ELISA; recombinant human HER2-Fc (1 μg/mL) coated on a MaxiSorp plate; His-tagged sdAb pre-incubated 7 days at 37°C in human, mouse or cynomolgus serum or PBS, then serially diluted; detected with anti-HIS-HRP

B1: humanised NM-02 variant F (VHH)
VHH: QVQLQESGGGLVQPGGSLRLSCSASGFTFDDSDMGWYRQAPGNECELVSSISSDGSTYYADSVKGRFTISQDNSKNTLYLQMNSLRAEDTAVYYCAAEGHRYELGTCAALDYWGRGTLVTVSS
notes: humanised variant F of NM-02; source: ExpiCHO-S, transiently transfected, purified (HisTrap Excel, SEC)
binding result [1]: binds

B2: NanoMab-02 (NM-02), HA- and His-tagged (VHH)
VHH: QVQLQESGGGSVQAGETLRLSCTASGFTFDDSDMGWYRQAPGNECELVSSISSDGSTYYADSVKGRFTISQDNAKNTVYLQMNSLKPEDTGVYYCAAEGHRYELGTCAALDYWGRGTQVTVSS
notes: camel (Camelus bactrianus) anti-HER2 single-domain antibody from a phage display library; In the ELISA and flow cytometry it was detected through the HA tag only; The microarray used the dual His6 + HA version (methods: 'either HA- and/or His-tagged'); also called dual tagged version of NM-02; duel-tagged NM-02
binding result (mouse HER2-ECD-Fc): no binding (tested: 160 nM)
EC50 (human HER2-ECD-Fc [2]): 1.2 nM

B3: lead humanised NM-02 candidate (variant K) (VHH)
VHH: B1 VHH with S23T, A91G
notes: humanised variant K of NM-02, 82.5% human identity; also called humanised variant K; humanised lead; source: ExpiCHO-S, transiently transfected, purified (HisTrap Excel, SEC); not shown: His-tag (with short GSG linker), C-terminal, kept
fold drop-off of activity after 7 days at 37°C in human serum versus PBS (human HER2-ECD-Fc [3]): 1.5 fold
Kd [1]: 0.212 nM
fold more potent than variant E [1]: ≥ 2 fold

B4: NanoMab-02 (NM-02) (VHH)
VHH: B2 VHH
notes: camel (Camelus bactrianus) anti-HER2 single-domain antibody; residues Gln3 to Ser123 modelled in the structure; The humanised variants were made in ExpiCHO-S with a C-terminal GSG-His tag, and the parent run beside them may have the same format; also called parent; wild type NM-02
Kd [1]: ~0.2 nM

B5: humanised NM-02 variant L (VHH)
VHH: B1 VHH with S74A, A91G
notes: humanised variant L of NM-02, with parental back mutations; source: ExpiCHO-S, transiently transfected, purified (HisTrap Excel, SEC)
binding result [1]: binds

B6: humanised NM-02 variant J (VHH)
VHH: B1 VHH with L11S, A91G, L118Q
notes: humanised variant J of NM-02, with parental back mutations; source: ExpiCHO-S, transiently transfected, purified (HisTrap Excel, SEC)
binding result [1]: binds

B7: humanised NM-02 variant N (VHH)
VHH: B1 VHH with A87P, A91G
notes: humanised variant N of NM-02, with parental back mutations; source: ExpiCHO-S, transiently transfected, purified (HisTrap Excel, SEC)
binding result [1]: binds

B8: humanised NM-02 variant E (VHH)
VHH: B1 VHH with A91G
notes: humanised variant E of NM-02, 83.5% human identity; also called mid-humanised candidate; source: ExpiCHO-S, transiently transfected, purified (HisTrap Excel, SEC)
binding result [1]: binds

B9: humanised NM-02 variant M (VHH)
VHH: B1 VHH with L78V, A91G
notes: humanised variant M of NM-02, with parental back mutations; source: ExpiCHO-S, transiently transfected, purified (HisTrap Excel, SEC)
binding result [1]: binds

B10: humanised NM-02 variant G (VHH)
VHH: B1 VHH with L118Q
notes: humanised variant G of NM-02, with parental back mutations; source: ExpiCHO-S, transiently transfected, purified (HisTrap Excel, SEC)
binding result [1]: binds

B11: humanised NM-02 variant B (VHH)
VHH: B1 VHH with G16E, S17T, S23A, A91G
notes: humanised variant B of NM-02; source: ExpiCHO-S, transiently transfected, purified (HisTrap Excel, SEC)
binding result [1]: binds

B12: humanised NM-02 variant I (VHH)
VHH: B1 VHH with A91G, L118Q
notes: humanised variant I of NM-02, with parental back mutations; source: ExpiCHO-S, transiently transfected, purified (HisTrap Excel, SEC)
binding result [1]: binds

B13: humanised NM-02 variant D (VHH)
VHH: B1 VHH with S23A, A91G
notes: humanised variant D of NM-02; source: ExpiCHO-S, transiently transfected, purified (HisTrap Excel, SEC)
binding result [1]: binds

B14: humanised NM-02 variant H (VHH)
VHH: B1 VHH with L11S
notes: humanised variant H of NM-02, with parental back mutations; source: ExpiCHO-S, transiently transfected, purified (HisTrap Excel, SEC)
binding result [1]: binds
